Read-outs that look alike come from different tables or passages of the source.
Legend:
Experiment in all cases: ELISA, MUC1 peptide immobilized on 384-well plate, HRP anti-human Igκ detection, luminescence
[1] = molecular target: T1, Human cancer-specific MUC1 peptide (PTL 1) (human)
T1 construct: Immobilized at 0.5 µmol/L per well on a 384-well ELISA plate
Protocol: (§1) Human cancer-specific MUC1 peptide (PTL 1) was immobilized at 0.5 μmol/L per well onto a 384-well ELISA plate. The resultant was reacted with each anti-human MUC1 antibody Fab fragment conjugate described above (sample No. 5, 6, 7, or 3) and then reacted with a horseradish peroxidase-labeled goat anti-human Igκ antibody (Southern Biotechnology Associates, Inc.) as a secondary antibody. ECL Prime Western Blotting Detection Reagent (GE Healthcare Japan Corp.) was added thereto for luminescence, and the degree of the luminescence was examined.
(§2) Likewise, binding activity evaluation was also conducted as to the anti-human MUC1 antibody Fab fragment conjugates given below.

[2] = molecular target: T1, Human cancer-specific MUC1 peptide (PTL …); remark: listed apart in the source
Protocol: as §1, §2

[3] = molecular target: T1, Human cancer-specific MUC1 peptide (PTL …); remark: listed apart in the source
Protocol: as §1

B1: P10-2 Fab (Fab, V domains shown)
VH: QVQLVQSGAEVKKPGASVKVSCKASGYTFTNYGLSWVRQAPGQGLEWMGENHPGSGIIYHNEKFRGRVTLTADRSTSTAYMELSSLRSEDTAVYYCARSSGTRGFDYWGQGTLVTVSS
VL: DVVMTQTPLSLSVTPGQPASISCRSSQSIVHSNGNTYLEWYLQKPGQSPQLLIYRVSNRFSGVPDRFSGSGSGTDFTLKISRVEAEDVGVYYCFQGSHGPWTFGQGTKLEIKR
modifications: heavy chain N-terminal glutamine modified into pyroglutamic acid in a great majority of purified antibodies (Example 2)
notes: expressed in Expi293F cells, purified with KappaSelect; also called anti-human MUC1 antibody Fab fragment P10-2
Work on B1 yielded an EC50 [1] of 160 pM, an EC50 [2] of 170 pM and an EC50 [3] of 230 pM.
